Measured values: paper PMC4381339, “Modeling autosomal recessive cutis laxa type 1C in mice reveals distinct functions for Ltbp-4 isoforms” (Disease Models & Mechanisms, 2015)

B1: Ltbp-4L-2xStrep (N-terminal fragment of mouse Ltbp-4L) (domain or fragment, UniProt Q8K4G1-1 25-277, looked up)
chain: SGSSPSPSPSPIEKAVVPSHQAGVAACHCCLDQTPKSSRCTRASCRVRNCPPAKCTGLEGCLTPTPSVPSPSRSPVEKSQVSLNWQPLTLQEARALLRQRRPRGPWARALLKRRPPHRAPAGQARVLCPLICHNGGVCVKPDRCLCPPDFAGKFCQLHSSGARPPAPAMPGLTRSVYTMPLANHRDDEHGVASMVSVHVEHPQEASVVVHQVERVSGPWEEANPEALARAEAAARAEAAAPYTVLAQSAPRED
notes: the first 253 amino acids after the signal peptide (Ser25-Asp277); numbers count on: the long isoform Ltbp-4L; Cloned into a modified pCEP-Pu vector with a 3' 2xStrepII tag through NheI and XhoI; also called N-terminal Ltbp-4L; Ltbp-4L N-terminal fragment; source: HEK 293 EBNA cells, stably expressed, purified from conditioned medium (streptactin-Sepharose); not shown: 2xStrepII, C-terminal, kept
B2: Ltbp-4S-2xStrep (N-terminal fragment of mouse Ltbp-4S) (domain or fragment, UniProt Q8K4G1-2 27-211, looked up)
chain: RPRERLRVRFTPAVCGLRCIHGPTGSRCTPTCAPRNATSVDSGAPGGAAPGGPGFRAFLCPLICHNGGVCVKPDRCLCPPDFAGKFCQLHSSGARPPAPAMPGLTRSVYTMPLANHRDDEHGVASMVSVHVEHPQEASVVVHQVERVSGPWEEANPEALARAEAAARAEAAAPYTVLAQSAPRED
modifications: N-linked glycosylation (shift after PNGase F), residue not given
notes: the first 185 amino acids after the signal peptide (Arg27-Asp211); numbers count on: the short isoform Ltbp-4S; Cloned into a modified pCEP-Pu vector with a 3' 2xStrepII tag through NheI and XhoI; also called N-terminal Ltbp-4S; Ltbp-4S N-terminal fragment; source: HEK 293 EBNA cells, stably expressed, purified from conditioned medium (streptactin-Sepharose); not shown: 2xStrepII, C-terminal, kept

Columns and labels:
[1] = target: rfibulin-4 and rfibulin-5 (mouse); assay: SPR; Ltbp-4L-2xStrep and Ltbp-4S-2xStrep after PNGase F digest under non-denaturing conditions, flown over rfibulin-4 and rfibulin-5 immobilized on a Biacore chip; response compared before and after deglycosylation; n=2
[2] = target: T1, recombinant full-length fibulin-4 (mouse, UniProt Q9WVJ9 28-443); assay: SPR; BIAcore2000; 570 RUs of rfibulin-4 or 390 RUs of rfibulin-5 amine-coupled to carboxymethyldextran hydrogel 500M chips; Ltbp-4L-2xStrep (0-320 nM) or Ltbp-4S-2xStrep (0-80 nM) flown over as analyte; 1:1 Langmuir fits, kobs plotted against concentration; apparent Kd = koff/kon; conditions: both partners purified
T1 construct: Fibulin-4, mouse, full length after the signal peptide; also called rfibulin-4; source: HEK 293 EBNA cells, stably expressed, purified from conditioned medium (streptactin-Sepharose)
T1 sequence (looked up): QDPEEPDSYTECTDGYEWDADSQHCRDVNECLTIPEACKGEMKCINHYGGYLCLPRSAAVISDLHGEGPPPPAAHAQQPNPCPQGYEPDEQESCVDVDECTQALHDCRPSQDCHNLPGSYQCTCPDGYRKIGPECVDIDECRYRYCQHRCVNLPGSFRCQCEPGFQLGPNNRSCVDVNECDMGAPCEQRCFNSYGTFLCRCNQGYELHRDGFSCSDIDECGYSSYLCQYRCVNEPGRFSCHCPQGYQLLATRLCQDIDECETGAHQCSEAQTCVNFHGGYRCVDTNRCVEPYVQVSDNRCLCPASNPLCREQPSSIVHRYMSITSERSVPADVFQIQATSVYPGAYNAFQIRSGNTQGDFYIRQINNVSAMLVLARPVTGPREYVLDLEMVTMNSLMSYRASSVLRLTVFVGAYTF

[3] = target: T2, recombinant full-length fibulin-5 (mouse, UniProt Q9WVH9 24-448); assay: as above; conditions: both partners purified
T2 construct: Fibulin-5, mouse, full length after the signal peptide; also called rfibulin-5; source: HEK 293 EBNA cells, stably expressed, purified from conditioned medium (streptactin-Sepharose)
T2 sequence (looked up): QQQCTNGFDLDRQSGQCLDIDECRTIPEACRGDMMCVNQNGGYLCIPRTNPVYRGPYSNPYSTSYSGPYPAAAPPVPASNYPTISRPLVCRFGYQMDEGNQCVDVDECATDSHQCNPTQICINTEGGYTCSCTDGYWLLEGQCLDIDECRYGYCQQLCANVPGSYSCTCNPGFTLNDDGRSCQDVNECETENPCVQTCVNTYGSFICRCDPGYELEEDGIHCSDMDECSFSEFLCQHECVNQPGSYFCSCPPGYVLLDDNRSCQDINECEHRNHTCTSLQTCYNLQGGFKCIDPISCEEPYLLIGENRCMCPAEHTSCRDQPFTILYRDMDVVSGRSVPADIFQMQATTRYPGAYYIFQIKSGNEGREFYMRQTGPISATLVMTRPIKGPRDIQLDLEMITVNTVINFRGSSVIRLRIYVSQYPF

Molecule | percent increase of the SPR signal after deglycosylation (against Ltbp-4S-2xStrep before deglycosylation) [1] [%] | Kd [2] [nM] | koff [2] [s⁻¹] | kon [2] [M⁻¹ s⁻¹] | Kd [3] [nM] | koff [3] [s⁻¹] | kon [3] [M⁻¹ s⁻¹]
Ltbp-4S-2xStrep after deglycosylation with PNGase F under non-denaturing conditions (domain or fragment) | 15 to 20 | – | – | – | – | – | –
B1 | – | 3.1 | 0.0041 | 1.3e+06 | 2.4 | 0.0053 | 2.2e+06
B2 | – | 15.4 | 0.0108 | 700000 | 15.8 | 0.0158 | 1e+06
